From article PMC12908882 (Molecular cancer therapeutics, 2026)

What was measured:
[1] = molecular target: His-tagged, monomeric mouse L1CAM protein (Mus musculus, UniProt P11627); test: BLI
[2] = molecular target: Extracellular domain of human L1CAM fused to a poly-histidine tag (L1CAM-His) (Homo sapiens, UniProt P32004); test: BLI
[3] = molecular target: Human L1CAM expressed on transfected HEK293T cells (HEK293T-L1CAM cells) (Homo sapiens, UniProt P32004); test: flow cytometry on cells
[4] = molecular target: Human L1CAM Ig-like domains, residues 21-605, C-terminal 6x His tag (Homo sapiens, UniProt P32004); test: BLI
[5] = molecular target: Human L1CAM fibronectin-like type III (FNIII) repeats, residues 606-1116, C-terminal 6x His tag (Homo sapiens, UniProt P32004); test: BLI

Measured: binding result

Sequence of Human L1CAM expressed on transfected HEK293T cells (HEK293T-L1CAM cells) (P32004 20-1257): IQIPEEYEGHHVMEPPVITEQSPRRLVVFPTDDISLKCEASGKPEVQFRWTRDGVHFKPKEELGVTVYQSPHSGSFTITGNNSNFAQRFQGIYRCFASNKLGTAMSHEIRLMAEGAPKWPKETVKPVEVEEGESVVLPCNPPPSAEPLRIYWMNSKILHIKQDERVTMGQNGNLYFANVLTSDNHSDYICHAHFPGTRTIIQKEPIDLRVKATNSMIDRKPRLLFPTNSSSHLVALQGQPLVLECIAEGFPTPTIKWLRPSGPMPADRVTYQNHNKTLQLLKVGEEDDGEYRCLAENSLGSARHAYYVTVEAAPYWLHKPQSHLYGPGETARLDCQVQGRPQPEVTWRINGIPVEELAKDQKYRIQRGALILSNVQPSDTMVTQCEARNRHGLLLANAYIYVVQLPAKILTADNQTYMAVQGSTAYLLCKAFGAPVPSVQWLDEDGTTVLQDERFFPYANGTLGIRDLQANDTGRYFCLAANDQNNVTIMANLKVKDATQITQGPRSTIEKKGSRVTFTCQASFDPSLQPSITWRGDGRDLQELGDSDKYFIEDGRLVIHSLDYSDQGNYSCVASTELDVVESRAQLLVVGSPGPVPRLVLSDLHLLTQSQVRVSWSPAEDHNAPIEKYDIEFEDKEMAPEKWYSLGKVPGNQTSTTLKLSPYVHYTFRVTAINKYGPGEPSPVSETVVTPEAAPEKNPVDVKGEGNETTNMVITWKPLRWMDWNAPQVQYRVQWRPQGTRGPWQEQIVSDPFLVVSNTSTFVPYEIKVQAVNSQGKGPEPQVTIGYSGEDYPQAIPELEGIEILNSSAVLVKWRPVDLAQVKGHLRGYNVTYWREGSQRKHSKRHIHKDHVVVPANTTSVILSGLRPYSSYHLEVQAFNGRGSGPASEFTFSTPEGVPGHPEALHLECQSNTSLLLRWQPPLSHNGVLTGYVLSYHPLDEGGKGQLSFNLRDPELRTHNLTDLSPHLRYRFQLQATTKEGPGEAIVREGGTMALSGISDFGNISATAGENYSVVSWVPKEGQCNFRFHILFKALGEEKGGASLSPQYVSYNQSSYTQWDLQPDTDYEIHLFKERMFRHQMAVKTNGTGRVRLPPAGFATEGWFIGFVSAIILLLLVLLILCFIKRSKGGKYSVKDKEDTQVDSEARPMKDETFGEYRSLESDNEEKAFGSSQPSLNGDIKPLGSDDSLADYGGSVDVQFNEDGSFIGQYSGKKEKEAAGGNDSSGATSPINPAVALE
Sequence of Human L1CAM Ig-like domains, residues 21-605, C-terminal 6x His tag (P32004 21-605): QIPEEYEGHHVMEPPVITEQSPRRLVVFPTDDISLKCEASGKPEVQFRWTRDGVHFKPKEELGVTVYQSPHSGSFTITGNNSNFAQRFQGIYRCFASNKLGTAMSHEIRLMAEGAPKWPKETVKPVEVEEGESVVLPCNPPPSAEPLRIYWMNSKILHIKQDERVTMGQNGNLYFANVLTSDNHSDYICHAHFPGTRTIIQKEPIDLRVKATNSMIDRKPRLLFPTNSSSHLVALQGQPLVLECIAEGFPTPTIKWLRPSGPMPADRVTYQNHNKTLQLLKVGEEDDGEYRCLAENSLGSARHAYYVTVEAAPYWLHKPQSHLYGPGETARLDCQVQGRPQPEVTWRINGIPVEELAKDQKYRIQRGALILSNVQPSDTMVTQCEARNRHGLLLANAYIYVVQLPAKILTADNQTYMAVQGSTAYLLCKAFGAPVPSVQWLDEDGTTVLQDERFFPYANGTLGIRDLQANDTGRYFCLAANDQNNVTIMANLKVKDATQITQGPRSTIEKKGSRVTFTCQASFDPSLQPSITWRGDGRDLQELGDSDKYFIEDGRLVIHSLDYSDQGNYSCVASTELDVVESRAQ
Sequence of Extracellular domain of human L1CAM fused to a poly-histidine tag (L1CAM-His) (P32004 20-1120): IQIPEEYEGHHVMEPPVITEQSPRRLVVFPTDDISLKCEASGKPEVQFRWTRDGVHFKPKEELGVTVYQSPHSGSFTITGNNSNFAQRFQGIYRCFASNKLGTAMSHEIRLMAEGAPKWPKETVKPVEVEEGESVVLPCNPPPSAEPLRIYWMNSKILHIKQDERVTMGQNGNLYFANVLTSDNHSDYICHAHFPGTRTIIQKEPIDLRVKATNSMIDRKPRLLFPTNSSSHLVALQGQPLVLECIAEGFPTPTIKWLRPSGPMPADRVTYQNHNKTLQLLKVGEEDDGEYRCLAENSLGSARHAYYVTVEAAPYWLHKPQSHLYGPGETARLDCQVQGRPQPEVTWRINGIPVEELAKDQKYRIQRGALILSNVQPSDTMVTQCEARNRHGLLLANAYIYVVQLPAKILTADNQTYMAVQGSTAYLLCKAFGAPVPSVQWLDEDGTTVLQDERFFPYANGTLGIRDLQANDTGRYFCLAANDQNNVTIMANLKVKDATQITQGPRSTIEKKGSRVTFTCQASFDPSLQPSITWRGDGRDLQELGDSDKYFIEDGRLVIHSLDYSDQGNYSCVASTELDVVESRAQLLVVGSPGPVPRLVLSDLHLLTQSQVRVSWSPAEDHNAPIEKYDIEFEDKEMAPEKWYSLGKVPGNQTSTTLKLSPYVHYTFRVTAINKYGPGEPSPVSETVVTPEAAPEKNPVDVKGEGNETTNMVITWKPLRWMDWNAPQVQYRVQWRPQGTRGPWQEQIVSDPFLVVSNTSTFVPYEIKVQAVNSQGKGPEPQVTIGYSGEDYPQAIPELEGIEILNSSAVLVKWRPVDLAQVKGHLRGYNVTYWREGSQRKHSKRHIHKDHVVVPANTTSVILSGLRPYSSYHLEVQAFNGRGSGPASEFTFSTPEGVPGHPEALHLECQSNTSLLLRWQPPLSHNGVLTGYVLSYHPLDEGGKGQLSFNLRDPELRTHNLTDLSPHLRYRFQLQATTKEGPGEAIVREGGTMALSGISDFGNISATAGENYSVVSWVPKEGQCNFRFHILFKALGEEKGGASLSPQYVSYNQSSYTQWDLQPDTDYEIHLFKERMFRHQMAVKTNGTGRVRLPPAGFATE
Sequence of Human L1CAM fibronectin-like type III (FNIII) repeats, residues 606-1116, C-terminal 6x His tag (P32004 606-1116): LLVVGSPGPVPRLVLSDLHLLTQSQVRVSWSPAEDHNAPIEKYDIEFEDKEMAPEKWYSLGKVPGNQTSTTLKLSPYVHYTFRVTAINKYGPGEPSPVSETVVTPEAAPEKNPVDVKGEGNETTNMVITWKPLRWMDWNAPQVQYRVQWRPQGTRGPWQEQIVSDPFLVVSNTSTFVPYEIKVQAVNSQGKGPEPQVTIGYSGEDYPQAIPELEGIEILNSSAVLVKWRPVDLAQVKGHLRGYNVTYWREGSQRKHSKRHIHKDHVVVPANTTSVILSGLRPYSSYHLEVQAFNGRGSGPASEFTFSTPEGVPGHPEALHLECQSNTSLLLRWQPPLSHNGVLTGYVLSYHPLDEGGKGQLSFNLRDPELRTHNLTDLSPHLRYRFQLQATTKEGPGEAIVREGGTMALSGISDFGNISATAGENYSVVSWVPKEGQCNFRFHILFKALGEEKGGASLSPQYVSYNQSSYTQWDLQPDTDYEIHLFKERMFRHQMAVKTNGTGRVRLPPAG
Sequence of His-tagged, monomeric mouse L1CAM protein (P11627 whole entry, looked up, the tested form may be a part): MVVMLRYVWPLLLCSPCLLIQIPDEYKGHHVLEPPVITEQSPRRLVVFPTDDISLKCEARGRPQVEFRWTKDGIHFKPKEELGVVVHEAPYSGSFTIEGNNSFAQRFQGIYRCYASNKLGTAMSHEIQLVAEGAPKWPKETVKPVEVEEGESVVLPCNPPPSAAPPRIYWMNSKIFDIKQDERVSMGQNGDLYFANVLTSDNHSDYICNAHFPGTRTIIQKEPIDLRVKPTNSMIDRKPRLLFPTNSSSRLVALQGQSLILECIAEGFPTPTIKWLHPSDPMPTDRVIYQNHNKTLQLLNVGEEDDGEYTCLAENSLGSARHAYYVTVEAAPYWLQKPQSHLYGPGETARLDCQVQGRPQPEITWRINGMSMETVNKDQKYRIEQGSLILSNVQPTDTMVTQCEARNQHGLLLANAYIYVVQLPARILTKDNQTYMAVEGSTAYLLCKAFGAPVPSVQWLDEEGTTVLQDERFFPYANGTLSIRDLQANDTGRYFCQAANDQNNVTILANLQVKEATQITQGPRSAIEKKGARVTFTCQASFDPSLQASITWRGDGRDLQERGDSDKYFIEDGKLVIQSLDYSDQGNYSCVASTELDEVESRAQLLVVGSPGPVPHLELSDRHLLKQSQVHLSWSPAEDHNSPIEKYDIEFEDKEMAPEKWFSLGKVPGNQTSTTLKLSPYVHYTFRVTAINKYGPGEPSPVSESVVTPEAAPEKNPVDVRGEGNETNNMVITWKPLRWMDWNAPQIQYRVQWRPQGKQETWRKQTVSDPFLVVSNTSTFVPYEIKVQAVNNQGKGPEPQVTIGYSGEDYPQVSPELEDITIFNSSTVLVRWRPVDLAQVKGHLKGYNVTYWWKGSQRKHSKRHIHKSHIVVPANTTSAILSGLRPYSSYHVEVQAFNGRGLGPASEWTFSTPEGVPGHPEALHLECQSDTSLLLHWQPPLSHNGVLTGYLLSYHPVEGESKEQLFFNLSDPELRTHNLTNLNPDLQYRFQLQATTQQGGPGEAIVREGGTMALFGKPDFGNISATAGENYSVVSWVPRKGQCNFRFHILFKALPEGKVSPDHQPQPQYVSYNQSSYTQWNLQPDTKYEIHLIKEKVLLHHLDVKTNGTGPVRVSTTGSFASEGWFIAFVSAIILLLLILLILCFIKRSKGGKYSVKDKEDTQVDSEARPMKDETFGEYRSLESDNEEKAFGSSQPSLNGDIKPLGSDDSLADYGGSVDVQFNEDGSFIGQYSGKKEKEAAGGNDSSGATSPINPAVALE

B1: 14A10 monoclonal antibody to human L1CAM (antibody, V domains shown)
VH: EVQMVESGGGLVQPGGSLRLSCAAPGFIFSSYNMNWVRQAPGKGLEWVSYISSSSSTTYYADSVKGRFTISRDNAKNSLYLQMNSLRDEDTAVYYCASLYSGYDYYYYYGMDVWGQGTTVTVSS
VL: DIVMTQTPLSSPVSLGQPASISCRSSQSLVHSDGNTYLSWLQQRPGQPPRVLIYKISKRFSGVPDRFSGSGAGTDFTLKISRVEAEDVGVYYCMQATQFPFTFGPGTKVDIK
not listed: [5]
binds: all other assays above

B2: 13F04 monoclonal antibody to human L1CAM (antibody, V domains shown)
VH: QVQLQQPGAELVKPGASVKLSCKASGYIFISYWMHWVKQRPGQGLEWIGEINPRNGRTNYNEKFKSKATLTVDKSSSTAYMQLTSLTSEDSAVYYCARGGDYGGSFDYWGQGTTLTVSS
VL: DIVLTQSPASLAVSLGQRATISCRASESVDSYGNSFMHWYQQKPGQPPKLLIYRASNLESGIPARFSGSGSRTDFTLTVNPVEADDVATYYCQQSNEDPWTFGGGTKLEIK
binds: [3] | [4]

B3: 143G03 monoclonal antibody to human L1CAM (antibody, V domains shown)
VH: QVQLVQSGAEVKKPGSSVKVSCKASGYTFTNYYIHWVRQAPGQGLEWMGKIGPGSGSPYYQGMFKDRVTITADESTSTAYMELSSLRSEDTAVYYCARWLLPFDYWGQGTLVTVSS
VL: EIVLTQSPGTLSLSPGERATLSCRASSSVNYMHWYQQKPGQAPRLLIYATSILASGIPDRFSGSGSGTDYTLTISRLEPEDFAVYYCQQFSSDPLTFGGGTKVEIK
binds: [2] | [3] | [5]
